The assay addresses spGFP_(1-10/11)-MSP1D1. Put plainly: SEC; purified scaffold protein without lipids; Superose 6 Increase 10/300 GL, 50 mM Tris-HCl pH 8, 100 mM NaCl, 5% glycerol; monomer (intramolecular complementation) against dimer (intermolecular complementation).

spGFP_(1-10/11)-MSP1D1 showed a percent dimeric of 30% and a stoichiometry N of 2.

(Values after paper PMC9135701.)
